Like-named read-outs stand apart in the source and are kept apart here.

From PMC3947186 (Structure (London, England : 1993), 2013) come the findings set out here.

What all share (experiment): ITC
In general terms: Isothermal titration calorimetry measures the heat released or taken up as one component is titrated into another.

In experiment [1] the target is mouse CSL core domain (residues 53-474), wild type (mouse) (UniProt P31266).
In experiment [2] the target is BTD of mouse CSL (residues 203-393) (mouse) (UniProt P31266).
Experiment [3] has as its target mouse CSL core domain (53-474) mutant A284R (mouse) (UniProt P31266).
Experiment [4] has as its target mouse CSL core domain (53-474) mutant F261R (mouse) (UniProt P31266).
Experiment [5] has as its target mouse CSL core domain (53-474) mutant Q333R (mouse) (UniProt P31266).
Experiment [6] addresses mouse CSL core domain (53-474) mutant V263R (mouse) (UniProt P31266).
In experiment [7] the target is mouse CSL core domain (residues 53-474), wild type (mouse) (UniProt P31266). The source holds these as a separate data set.
Experiment [8] has the same target. The source holds these as a separate data set.
Experiment [9] has as its target mouse CSL core domain (residues 53-474), wild type (mouse, UniProt P31266 53-474).
Experiment [10] deals with mouse CSL core domain (residues 53-474), wild type (mouse) (UniProt P31266). This is another data set of the same source.

Chain of mouse CSL core domain (53-474) mutant F261R (mouse) (P31266 53-474 F261R): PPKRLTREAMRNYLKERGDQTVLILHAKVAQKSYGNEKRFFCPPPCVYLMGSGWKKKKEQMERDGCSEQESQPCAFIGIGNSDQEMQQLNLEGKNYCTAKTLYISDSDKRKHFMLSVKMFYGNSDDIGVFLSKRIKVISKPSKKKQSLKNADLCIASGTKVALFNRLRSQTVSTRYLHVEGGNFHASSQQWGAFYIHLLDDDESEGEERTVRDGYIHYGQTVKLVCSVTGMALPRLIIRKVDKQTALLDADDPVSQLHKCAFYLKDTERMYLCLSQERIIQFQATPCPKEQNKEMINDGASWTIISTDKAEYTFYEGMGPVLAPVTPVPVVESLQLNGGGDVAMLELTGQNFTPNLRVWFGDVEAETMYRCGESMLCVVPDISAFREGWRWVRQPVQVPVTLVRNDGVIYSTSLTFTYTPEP
Chain of mouse CSL core domain (53-474) mutant V263R (mouse) (P31266 53-474 V263R): as the sequence (P31266 53-474 F261R) above, with R209F, V211R counted along it
Chain of mouse CSL core domain (residues 53-474), wild type (mouse) (P31266 53-474): as the sequence (P31266 53-474 F261R) above, with R209F counted along it
Chain of mouse CSL core domain (53-474) mutant Q333R (mouse) (P31266 53-474 Q333R): as the sequence (P31266 53-474 F261R) above, with R209F, Q281R counted along it
Chain of mouse CSL core domain (53-474) mutant A284R (mouse) (P31266 53-474 A284R): as the sequence (P31266 53-474 F261R) above, with R209F, A232R counted along it
Chain of mouse CSL core domain (residues 53-474), wild type (P31266 53-474): as the sequence (P31266 53-474 F261R) above, with R209F counted along it
Chain of BTD of mouse CSL (residues 203-393) (mouse) (P31266 203-393): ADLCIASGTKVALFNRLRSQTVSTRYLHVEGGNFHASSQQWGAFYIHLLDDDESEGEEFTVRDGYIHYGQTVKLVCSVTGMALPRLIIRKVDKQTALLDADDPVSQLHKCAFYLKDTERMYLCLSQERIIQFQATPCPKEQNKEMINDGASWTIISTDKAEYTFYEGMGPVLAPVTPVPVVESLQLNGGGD

In the case of “mouse KyoT2 (residues 184-210) (peptide)”, the Ka in experiment [1] was 1.1e+08 M⁻¹; in [4] it was 340000 M⁻¹; in experiment [5], 2e+07 M⁻¹; in experiment [6], 3.1e+07 M⁻¹; in experiment [7], 8.5e+07 M⁻¹; in experiment [8], 9.4e+07 M⁻¹. Further, the Kd (as a rule, the constant that tells how readily two partners part at equilibrium) worked out at 11 nM in [1]; 26 nM in experiment [2]; 7200 nM in [3]; 6300 nM in [4]; 51 nM in experiment [5]; 19 nM in experiment [6]. For the same molecule, the results for the Kd in experiment [7] and in [8] were 12 nM and 11 nM, respectively. Also, the dH was -11 kcal/mol in experiment [1]; -13.6 kcal/mol in experiment [2]; -10.5 kcal/mol in [3]; -5.6 kcal/mol in experiment [4]; -11.7 kcal/mol in [5]; -12.9 kcal/mol in experiment [6]. The values for the dH in experiment [7] and in experiment [8] were -15.5 kcal/mol and -14.6 kcal/mol, respectively. Besides, the stoichiometry N (usually the number of molecules, sites or subunits per partner or assembly) in experiment [7] was found to be 1.

“RAM domain of Notch1, mutant Q1763A (from UniProt P46531 19-2555) (domain or fragment)”: in [7], the Ka was 2e+07 M⁻¹, the Kd was determined as 22 nM and the dH is -7.5 kcal/mol.

With “RAM domain of Notch1, wild type (from UniProt P46531 19-2555) (domain or fragment)”, in experiment [7], the Ka was determined as 6.8e+07 M⁻¹, the Kd worked out at 15 nM and the dH is -18.2 kcal/mol.

As for “KyoT2 KD196AA (in the construct 184-210) (peptide)”, in [7], the Ka was found to be 1.2e+08 M⁻¹, the Kd was determined as 12 nM and the dH is -16 kcal/mol.

For the molecule “mouse KyoT2 (residues 184-200) (peptide)”, in [7], the Ka stood at 3.1e+07 M⁻¹ and the dH is -13.1 kcal/mol.

As to “mouse KyoT2 (residues 182-210) (peptide)”, in [7], the Ka amounted to 7.1e+07 M⁻¹, the Kd amounted to 15 nM and the dH was -16 kcal/mol.

Take “KyoT2 V186A (in the construct 184-210) (peptide)”: in experiment [7], the dissociation constant (Kd) amounted to 69 nM and the dH was -13.7 kcal/mol.

B1: KyoT2 peptide KAPVWWPMKD (residues 187-196) (peptide)
peptide: KAPVWWPMKD
As for B1, the “fold enhancement in binding against the peptide APVWWPMK” value in experiment [9] was ~40 fold.

B2: KyoT2 peptide APVWWPMK (residues 188-195) (peptide)
peptide: APVWWPMK
B2: the binding result in [9] is “binds”.

B3: KyoT2 tetrapeptide VWWP (residues 190-193) (peptide)
peptide: VWWP
For B3, the equilibrium dissociation constant (Kd) in experiment [10] came to 8000 nM.
